Residue numbers refer to the chain shown, from its start. Numbers in names are those of the source.
B1: medium-chain acyl-CoA dehydrogenase (MCAD) wild-type (enzyme, human, UniProt P11310-1 26-421, looked up)
chain: KANRQREPGLGFSFEFTEQQKEFQATARKFAREEIIPVAAEYDKTGEYPVPLIRRAWELGLMNTHIPENCGGLGLGTFDACLISEELAYGCTGVQTAIEGNSLGQMPIIIAGNDQQKKKYLGRMTEEPLMCAYCVTEPGAGSDVAGIKTKAEKKGDEYIINGQKMWITNGGKANWYFLLARSDPDPKAPANKAFTGFIVEADTPGIQIGRKELNMGQRCSDTRGIVFEDVKVPKENVLIGDGAGFKVAMGAFDKTRPVVAAGAVGLAQRALDEATKYALERKTFGKLLVEHQAISFMLAEMAMKVELARMSYQRAAWEVDSGRRNTYYASIAKAFAGDIANQLATDAVQILGGNGFNTEYPVEKLMRDAKIYQIYEGTSQIQRLIVAREHIDKYKN
notes: medium-chain acyl-CoA dehydrogenase (MCAD), human, cDNA of the ACADM gene cloned into pMALc2X; also called WT; wild-type MCAD; source: E. coli BL21-CodonPlus, purified (MBPTrap, SEC, Factor Xa cleavage, SEC); not shown: MBP, N-terminal, cleaved
B2: MCAD p.Tyr158His (enzyme, human, UniProt P11310-1 26-421, looked up)
chain: B1 chain with Y133H
notes: medium-chain acyl-CoA dehydrogenase (MCAD), human, ACADM cDNA in pMALc2X with a missense mutation found in newborn screening; number counts on the precursor (initiator methionine +1); also called Y158H; p.Tyr133His; source: E. coli DH5α co-transformed with pGroESL, purified (MBPTrap, SEC, Factor Xa cleavage, SEC); not shown: MBP, N-terminal, cleaved
B3: MCAD p.Arg413Ser (enzyme, human, UniProt P11310-1 26-421, looked up)
chain: B1 chain with R388S
notes: medium-chain acyl-CoA dehydrogenase (MCAD), human, ACADM cDNA in pMALc2X with a missense mutation found in newborn screening; number counts on the precursor (initiator methionine +1); also called R413S; p.Arg388Ser; source: E. coli DH5α co-transformed with pGroESL, purified (MBPTrap, SEC, Factor Xa cleavage, SEC); not shown: MBP, N-terminal, cleaved
B4: MCAD p.Arg334Lys (enzyme, human, UniProt P11310-1 26-421, looked up)
chain: B1 chain with R309K
notes: medium-chain acyl-CoA dehydrogenase (MCAD), human, ACADM cDNA in pMALc2X with a missense mutation found in newborn screening; number counts on the precursor (initiator methionine +1); also called R334K; p.Arg309Lys; source: E. coli DH5α co-transformed with pGroESL, purified (MBPTrap, SEC, Factor Xa cleavage, SEC); not shown: MBP, N-terminal, cleaved
B5: MCAD p.Ala52Val (enzyme, human, UniProt P11310-1 26-421, looked up)
chain: B1 chain with A27V
notes: medium-chain acyl-CoA dehydrogenase (MCAD), human, ACADM cDNA in pMALc2X with a missense mutation found in newborn screening; number counts on the precursor (initiator methionine +1); also called p.Ala27Val; A27V; source: E. coli DH5α co-transformed with pGroESL, purified (MBPTrap, SEC, Factor Xa cleavage, SEC); not shown: MBP, N-terminal, cleaved
B6: MCAD p.Arg206Cys (enzyme, human, UniProt P11310-1 26-421, looked up)
chain: B1 chain with R181C
notes: medium-chain acyl-CoA dehydrogenase (MCAD), human, ACADM cDNA in pMALc2X with a missense mutation found in newborn screening; number counts on the precursor (initiator methionine +1); also called R206C; p.Arg181Cys; source: E. coli DH5α co-transformed with pGroESL, purified (MBPTrap, SEC, Factor Xa cleavage, SEC); not shown: MBP, N-terminal, cleaved
B7: MCAD p.Tyr67His (enzyme, human, UniProt P11310-1 26-421, looked up)
chain: B1 chain with Y42H
notes: medium-chain acyl-CoA dehydrogenase (MCAD), human, ACADM cDNA in pMALc2X with a missense mutation found in newborn screening; number counts on the precursor (initiator methionine +1); also called Y67H; p.Tyr42His; source: E. coli DH5α co-transformed with pGroESL, purified (MBPTrap, SEC, Factor Xa cleavage, SEC); not shown: MBP, N-terminal, cleaved
B8: MCAD p.Lys329Glu (enzyme, human, UniProt P11310-1 26-421, looked up)
chain: B1 chain with K304E
notes: medium-chain acyl-CoA dehydrogenase (MCAD), human, ACADM cDNA in pMALc2X with a missense mutation found in patients; number counts on the precursor (initiator methionine +1); also called K329E; p.Lys304Glu; source: E. coli DH5α co-transformed with pGroESL, purified (MBPTrap, SEC, Factor Xa cleavage, SEC); not shown: MBP, N-terminal, cleaved
B9: MCAD p.Asp266Gly (enzyme, human, UniProt P11310-1 26-421, looked up)
chain: B1 chain with D241G
notes: medium-chain acyl-CoA dehydrogenase (MCAD), human, ACADM cDNA in pMALc2X with a missense mutation found in newborn screening; number counts on the precursor (initiator methionine +1); also called D266G; p.Asp241Gly; source: E. coli DH5α co-transformed with pGroESL, purified (MBPTrap, SEC, Factor Xa cleavage, SEC); not shown: MBP, N-terminal, cleaved

Target: the molecule itself
Assay: SEC; re-chromatography after Factor Xa cleavage of the MBP tag; HiLoad 16/600 Superdex 200, 20 mM HEPES pH 7.0, 200 mM NaCl, 4 °C; tetrameric fraction pooled

Stoichiometry N, 4:
B1
B2
B3
B4
B5
B6
B7
B8
B9
